Assay results from patent US8357518B2, “Thermostable enzymes for the hydrolysis of mannan-containing polysaccharides” (The Board of Trustees of the University of Illinois, priority 2010, dated 2013).

Assays:
Assay in all cases: Catalytic efficiency with oligosaccharides, HPAEC (Man5B)
Format in all cases: biochemical, Caldanaerobius polysaccharolyticus
Details in all cases: other: Man5B 3 nM, oligosaccharide 30 μM, citrate buffer 50 mM, pH 5.5, 5 min, triplicate
[1] = substrate: OC[C@H]1O[C@@H](O[C@H]2[C@H](O)[C@H](O)C(O)O[C@@H]2CO)[C@@H](O)[C@@H](O)[C@@H]1O
Protocol: (§1) Cloning, expression, and purification of Man5A-TM1, Man5A-TM2 and Man5B. C. polysaccharolyticus was cultured in TYG medium and DNA was isolated from mid-log cultures and purified using the Qiagen DNeasy Blood and Tissue kit with an integrated RNase treatment step. The genome of C. polysaccharolyticus was partially sequenced by the W. M. Keck Biotechnology Center at the University of Illinois at Urbana-Champaign. A Newbler assembly was generated which is comprised of ½ plate of FLX PE 454 data and ½ plate of 8 kb paired-end GSFLX Titanium data using a Genome Sequencer instrument from 454 Life Sciences (Branford, Conn.). The partial genome sequence was uploaded onto the Rapid Annotation using Subsystem Technology (RAST) server (Aziz et al., BMC Genomics, 9:75, 2008). Auto-annotation of the C. polysaccharolyticus partial genome sequence identified ORF0760 as a gene predicted to encode a bifunctional β-D-mannanase/endoglucanase (Man5B). Man5A was previously identified in a recombinant phage library of C. polysaccharolyticus genomic DNA, which was screened for endoglucanase activity (Cann et al., J Bacteriol, 181:1643, 1999) and the full sequence of this gene was also identified in the partial genome sequence for C. polysaccharolyticus.
(§2) The DNA sequence corresponding to man5B was amplified by the PicoMaxx high fidelity PCR kit using genomic DNA as the template with the primer set Man5B-Forward and Man5B-Reverse (Table 1-1). The primers were engineered to incorporate a 5′-[…] (SEQ ID NO: 54) extension in Man5B-F and a 5′-[…] (SEQ ID NO: 55) extension in Man5B-R, which facilitated subsequent directional cloning. The resultant man5B amplicon was then digested with T4 DNA polymerase exonuclease activity, annealed with a similarly digested pET-46b vector and introduced into E. coli JM109 by electroporation. Man5A-TM1 was amplified using genomic DNA as template with primers Man5A-TM1-F and Man5A-TM1-R (Table 1-1). The primer sets for Man5A-TM1 and Man5A-TM2 were designed to include 5′-NdeI and 3′-XhoI restriction sites for subsequent directional cloning. The resulting amplicons were then cloned into the pGEM-T vector via TA-cloning and subcloned in-frame with the hexahistidine (His6) encoding sequence of a modified pET-28a expression vector via its NdeI-XhoI polylinker site. The truncated protein Man5A-TM2 originally named ManA-SLH-CBD was cloned as described in a previous study (Cann et al., J Bacteriol, 181:1643, 1999). Expression of each of the resulting gene constructs yielded fusion proteins containing an N-terminal polyhistidine tag sequence to facilitate affinity purification via metal chelate chromatography. The resulting plasmid constructs pET46-Man5B, pET28a-Man5A-TM1, and pET-28a-Man5A-TM2 were sequenced to confirm the integrity of the cloned genes (W. M. Keck Center for Comparative and Functional Genomics at the University of Illinois at Urbana-Champaign).
(§3) The plasmid constructs were then introduced into E. coli BL-21 CodonPlus (DE3) RIL competent cells by heat shock, and grown overnight in lysogeny broth (LB) agar medium supplemented with ampicillin (100 μg/mL) and chloramphenicol (50 μg/mL) at 37° C. After 12 h, single colonies were selected and used to inoculate fresh LB (10 mL) supplemented with the antibiotics above at the same concentrations, followed by culturing with aeration for 8 h at 37° C. […]

[2] = substrate: OC[C@H]1O[C@@H](O[C@H]2[C@H](O)[C@H](O)[C@H](O[C@H]3[C@H](O)[C@H](O)[C@H](O[C@H]4[C@H](O)[C@H](O)[C@H](O[C@H]5[C@H](O)[C@H](O)C(O)O[C@@H]5CO)O[C@@H]4CO)O[C@@H]3CO)O[C@@H]2CO)[C@@H](O)[C@@H](O)[C@@H]1O
Protocol: as §1, §2, §3

[3] = substrate: OC[C@H]1O[C@H](OC[C@H]2OC(O)[C@@H](O)[C@@H](O)[C@@H]2O[C@@H]2O[C@H](CO)[C@@H](O[C@@H]3O[C@H](CO)[C@@H](O)[C@H](O)[C@@H]3O)[C@H](O)[C@@H]2O)[C@H](O)[C@@H](O)[C@H]1O
Protocol: as §1, §2, §3

B1: Caldanaerobius polysaccharolyticus endo-β-mannanase Man5B, wild type, SEQ ID NO: 31 (Caldanaerobius polysaccharolyticus) (protein)
chain: MKKYGFNFQWMYVWEEGREPEPPDKKALDFLAETGFNFVRIPVDYRFWTRNFDYFNPDKKVFEYIDLYLRECSARNIHMCLNLHRAPGYCINRNDIERDNLWLDKRAQDGFVYQWELFAKRYKGVSSKFLSFDLVNEPPNIGQYGLTRENHASLIIRTVEAIRKIDPDREIVIDGLGGGNIAMPELAHLGVVHSGRGYQPMALTHYQASWWDGHKGLPEPYYPDLLWQGKVWNKDTLREYYKPWRDLQQKGVNVHIGEFGCFNKTSNDVAIRWFEDVLSLYKEFEWGYSLWNFKGPFGIVEHGRPGAKYEYYRGFKVDRELLDLLVENRV
- kcat/Km [1]: 230 ± 30 M⁻¹ s⁻¹
- kcat/Km [2]: (2.2 ± 0.3) × 10^2 mM^−1 s^−1
- kcat/Km [3]: 30000 ± 7000 M⁻¹ s⁻¹
